# B1: Lysozyme C, P61626 (parent)
# chain: MKALIVLGLVLLSVTVQGKVFERCELARTLKRLGMDGYRGISLANWMCLAKWESGYNTRATNYNAGDRSTDYGIFQINSRYWCNDGKTPGAVNACHLSCSALLQDNIADAVACAKRVVRDPQGIRAWVAWRNRCQNRDVRQYVQGCGV
# Variants of: B1
# Settings: Homo sapiens; pH 2.5; Thermal; DSC; glycine 0.05 M; reversible: yes; structure 1LZ1; whole UniProt chain shown
Variant,Tm [°C],unfolding enthalpy (calorimetric) [kcal/mol],unfolding enthalpy (van 't Hoff) [kcal/mol]
MKALIVLGLVLLSVTVQGKVFERCELARTLKRLGMDGYRGISLANWMCLAKWESGYNTRATNYNAGDRSTDYGIFQINSRYWCNDGKTPGAVNACHLSCSALLQDNIADAVACAKRVVRDPQGIRAWVAWRNRCQNRDVRQYVQGCGA [V148A],40.4,61,67.7

# Same assay, conditions: Homo sapiens; pH 2.69; Thermal; DSC; glycine 0.05 M; reversible: yes; structure 1LZ1; whole UniProt chain shown
Variant,Tm [°C],unfolding enthalpy (calorimetric) [kcal/mol],unfolding enthalpy (van 't Hoff) [kcal/mol]
MKALIVLGLVLLSVTVQGKVFERCELARTLKRLGMDGYRGISLANWMCLAKWESGYNTRATNYNAGDRSTDYGIFQINSRYWCNDGKTPGAVNACHLSCSALLQDNIADAVACAKRVVRDPQGIRAWVAWRNRCQNRDVRQYVQGCGA [V148A],43.8,69.9,73
MKALIVLGLVLLSVTVQGKVFERCELARTLKRLGMDGYRGISLANWMCLAKWESGYNTRATNYNAGDRSTDYGIFQINSRYWCNDGKTPGAANACHLSCSALLQDNIADAVACAKRVVRDPQGIRAWVAWRNRCQNRDVRQYVQGCGV [V92A],47.5,71.5,75.6

# Same assay, conditions: Homo sapiens; pH 2.7; 49.2 °C; Thermal; DSC; glycine 0.05 M; reversible: yes; structure 1LZ1; whole UniProt chain shown
Variant,ddG of mutation (higher = less stable) [kcal/mol],heat capacity change of unfolding [kcal/mol/K]
MKALIVLGLVLLSVTVQGKVFERCELARTLKRLGMDGYRGISLANWMCLAKWESGYNTRATNYNAGDRSTDYGIFQINSRYWCNDGKTPGAVNACHLSCSALLQDNIADAVACAKRVVRDPQGIRAWVAWRNRCQNRDVRQYVQGCGA [V148A],1.12,1.87
MKALIVLGLVLLSVTVQGKVFERCELARTLKRLGMDGYRGISLANWMCLAKWESGYNTRATNYNAGDRSTDYGIFQINSRYWCNDGKTPGAANACHLSCSALLQDNIADAVACAKRVVRDPQGIRAWVAWRNRCQNRDVRQYVQGCGV [V92A],0.43,1.53
MKALIVLGLVLLSVTVQGKVFERCELARTLKRLGMDGYRGISLANWMCLAKWESGYNTRATNYNAGDRSTDYGIFQINSRYWCNDGKTPGAVNACHLSCSALLQDNIADAVACAKRVARDPQGIRAWVAWRNRCQNRDVRQYVQGCGV [V118A],0.57,1.84

# Same assay, conditions: Homo sapiens; pH 2.7; Thermal; DSC; glycine 0.05 M; reversible: yes; structure 1LZ1; whole UniProt chain shown
Variant,Tm [°C],"change of melting temperature, mutant - wild type (higher = more stable) [°C]",heat capacity change of unfolding [kcal/mol/K],unfolding enthalpy (calorimetric) [kcal/mol]
MKALIVLGLVLLSVTVQGKVFERCELARTLKRLGMDGYRGISLANWMCLAKWESGYNTRATNYNAGDRSTDYGIFQINSRYWCNDGKTPGAVNACHLSCSALLQDNIADAVACAKRVVRDPQGIRAWVAWRNRCQNRDVRQYVQGCGA [V148A],44.4,-4.8,1.87,78.2
MKALIVLGLVLLSVTVQGKVFERCELARTLKRLGMDGYRGISLANWMCLAKWESGYNTRATNYNAGDRSTDYGIFQINSRYWCNDGKTPGAANACHLSCSALLQDNIADAVACAKRVVRDPQGIRAWVAWRNRCQNRDVRQYVQGCGV [V92A],47.3,-1.9,1.53,73.7
MKALIVLGLVLLSVTVQGKVFERCELARTLKRLGMDGYRGISLANWMCLAKWESGYNTRATNYNAGDRSTDYGIFQINSRYWCNDGKTPGAVNACHLSCSALLQDNIADAVACAKRVARDPQGIRAWVAWRNRCQNRDVRQYVQGCGV [V118A],46.6,-2.6,1.84,72.2

# Same assay, conditions: Homo sapiens; pH 2.82; Thermal; DSC; glycine 0.05 M; reversible: yes; structure 1LZ1; whole UniProt chain shown
Variant,Tm [°C],unfolding enthalpy (calorimetric) [kcal/mol],unfolding enthalpy (van 't Hoff) [kcal/mol]
MKALIVLGLVLLSVTVQGKVFERCELARTLKRLGMDGYRGISLANWMCLAKWESGYNTRATNYNAGDRSTDYGIFQINSRYWCNDGKTPGAVNACHLSCSALLQDNIADAVACAKRVVRDPQGIRAWVAWRNRCQNRDVRQYVQGCGA [V148A],47,73,79.2

# Same assay, conditions: Homo sapiens; pH 2.97; Thermal; DSC; glycine 0.05 M; reversible: yes; structure 1LZ1; whole UniProt chain shown
Variant,Tm [°C],unfolding enthalpy (calorimetric) [kcal/mol],unfolding enthalpy (van 't Hoff) [kcal/mol]
MKALIVLGLVLLSVTVQGKVFERCELARTLKRLGMDGYRGISLANWMCLAKWESGYNTRATNYNAGDRSTDYGIFQINSRYWCNDGKTPGAVNACHLSCSALLQDNIADAVACAKRVVRDPQGIRAWVAWRNRCQNRDVRQYVQGCGA [V148A],49.9,80.1,86.1

# Same assay, conditions: Homo sapiens; pH 3.09; Thermal; DSC; glycine 0.05 M; reversible: yes; structure 1LZ1; whole UniProt chain shown
Variant,Tm [°C],unfolding enthalpy (calorimetric) [kcal/mol],unfolding enthalpy (van 't Hoff) [kcal/mol]
MKALIVLGLVLLSVTVQGKVFERCELARTLKRLGMDGYRGISLANWMCLAKWESGYNTRATNYNAGDRSTDYGIFQINSRYWCNDGKTPGAVNACHLSCSALLQDNIADAVACAKRVVRDPQGIRAWVAWRNRCQNRDVRQYVQGCGA [V148A],52.5,84.2,90.2

# Same assay, conditions: Homo sapiens; pH 2.51; Thermal; DSC; glycine 0.05 M; reversible: yes; structure 1LZ1; whole UniProt chain shown
Variant,Tm [°C],unfolding enthalpy (calorimetric) [kcal/mol],unfolding enthalpy (van 't Hoff) [kcal/mol]
MKALIVLGLVLLSVTVQGKVFERCELARTLKRLGMDGYRGISLANWMCLAKWESGYNTRATNYNAGDRSTDYGIFQINSRYWCNDGKTPGAANACHLSCSALLQDNIADAVACAKRVVRDPQGIRAWVAWRNRCQNRDVRQYVQGCGV [V92A],43.9,65.6,69.9
MKALIVLGLVLLSVTVQGKVFERCELARTLKRLGMDGYRGISLANWMCLAKWESGYNTRATNYNAGDRSTDYGIFQINSRYWCNDGKTPGAVNACHLSCSALLQDNIADAVACAKRVARDPQGIRAWVAWRNRCQNRDVRQYVQGCGV [V118A],43.5,61.5,70.1

# Same assay, conditions: Homo sapiens; pH 2.85; Thermal; DSC; glycine 0.05 M; reversible: yes; structure 1LZ1; whole UniProt chain shown
Variant,Tm [°C],unfolding enthalpy (calorimetric) [kcal/mol],unfolding enthalpy (van 't Hoff) [kcal/mol]
MKALIVLGLVLLSVTVQGKVFERCELARTLKRLGMDGYRGISLANWMCLAKWESGYNTRATNYNAGDRSTDYGIFQINSRYWCNDGKTPGAANACHLSCSALLQDNIADAVACAKRVVRDPQGIRAWVAWRNRCQNRDVRQYVQGCGV [V92A],50.1,74.4,80.9

# Same assay, conditions: Homo sapiens; pH 3.03; Thermal; DSC; glycine 0.05 M; reversible: yes; structure 1LZ1; whole UniProt chain shown
Variant,Tm [°C],unfolding enthalpy (calorimetric) [kcal/mol],unfolding enthalpy (van 't Hoff) [kcal/mol]
MKALIVLGLVLLSVTVQGKVFERCELARTLKRLGMDGYRGISLANWMCLAKWESGYNTRATNYNAGDRSTDYGIFQINSRYWCNDGKTPGAANACHLSCSALLQDNIADAVACAKRVVRDPQGIRAWVAWRNRCQNRDVRQYVQGCGV [V92A],52.8,79.2,86.4

# Same assay, conditions: Homo sapiens; pH 3.16; Thermal; DSC; glycine 0.05 M; reversible: yes; structure 1LZ1; whole UniProt chain shown
Variant,Tm [°C],unfolding enthalpy (calorimetric) [kcal/mol],unfolding enthalpy (van 't Hoff) [kcal/mol]
MKALIVLGLVLLSVTVQGKVFERCELARTLKRLGMDGYRGISLANWMCLAKWESGYNTRATNYNAGDRSTDYGIFQINSRYWCNDGKTPGAANACHLSCSALLQDNIADAVACAKRVVRDPQGIRAWVAWRNRCQNRDVRQYVQGCGV [V92A],54.8,82.5,86.4

# Same assay, conditions: Homo sapiens; pH 2.72; Thermal; DSC; glycine 0.05 M; reversible: yes; structure 1LZ1; whole UniProt chain shown
Variant,Tm [°C],unfolding enthalpy (calorimetric) [kcal/mol],unfolding enthalpy (van 't Hoff) [kcal/mol]
MKALIVLGLVLLSVTVQGKVFERCELARTLKRLGMDGYRGISLANWMCLAKWESGYNTRATNYNAGDRSTDYGIFQINSRYWCNDGKTPGAVNACHLSCSALLQDNIADAVACAKRVARDPQGIRAWVAWRNRCQNRDVRQYVQGCGV [V118A],46.8,68.9,73.4

# Same assay, conditions: Homo sapiens; pH 2.9; Thermal; DSC; glycine 0.05 M; reversible: yes; structure 1LZ1; whole UniProt chain shown
Variant,Tm [°C],unfolding enthalpy (calorimetric) [kcal/mol],unfolding enthalpy (van 't Hoff) [kcal/mol]
MKALIVLGLVLLSVTVQGKVFERCELARTLKRLGMDGYRGISLANWMCLAKWESGYNTRATNYNAGDRSTDYGIFQINSRYWCNDGKTPGAVNACHLSCSALLQDNIADAVACAKRVARDPQGIRAWVAWRNRCQNRDVRQYVQGCGV [V118A],49.9,72.5,79.2

# Same assay, conditions: Homo sapiens; pH 3.02; Thermal; DSC; glycine 0.05 M; reversible: yes; structure 1LZ1; whole UniProt chain shown
Variant,Tm [°C],unfolding enthalpy (calorimetric) [kcal/mol],unfolding enthalpy (van 't Hoff) [kcal/mol]
MKALIVLGLVLLSVTVQGKVFERCELARTLKRLGMDGYRGISLANWMCLAKWESGYNTRATNYNAGDRSTDYGIFQINSRYWCNDGKTPGAVNACHLSCSALLQDNIADAVACAKRVARDPQGIRAWVAWRNRCQNRDVRQYVQGCGV [V118A],52,77.8,81.6

# Same assay, conditions: Homo sapiens; pH 3.15; Thermal; DSC; glycine 0.05 M; reversible: yes; structure 1LZ1; whole UniProt chain shown
Variant,Tm [°C],unfolding enthalpy (calorimetric) [kcal/mol],unfolding enthalpy (van 't Hoff) [kcal/mol]
MKALIVLGLVLLSVTVQGKVFERCELARTLKRLGMDGYRGISLANWMCLAKWESGYNTRATNYNAGDRSTDYGIFQINSRYWCNDGKTPGAVNACHLSCSALLQDNIADAVACAKRVARDPQGIRAWVAWRNRCQNRDVRQYVQGCGV [V118A],54.4,81.8,84.7

# From FireProtDB (doi:10.1006/jmbi.1998.1906)
